Assay [1] addresses T1, Movement Protein of ToBRFV (Tomato Brown Rugose Fruit Virus …, UniProt A0A0S2SZW1 1-266).
T1 sequence: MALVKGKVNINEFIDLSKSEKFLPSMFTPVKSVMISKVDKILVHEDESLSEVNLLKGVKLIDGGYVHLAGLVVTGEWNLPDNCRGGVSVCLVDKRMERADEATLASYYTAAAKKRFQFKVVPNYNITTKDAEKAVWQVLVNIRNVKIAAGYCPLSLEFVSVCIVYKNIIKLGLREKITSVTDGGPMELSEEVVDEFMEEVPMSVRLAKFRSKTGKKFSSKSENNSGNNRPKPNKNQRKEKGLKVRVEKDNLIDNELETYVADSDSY
The assay can be described thus: cell-based or functional assay.

The target in assay [2] is T1, Movement Protein of ToBRFV. The assay can be described thus: cell-based or functional assay. This is another data set of the same source.

Read-outs that look alike come from different tables or passages of the source.

The text below walks through data of patent US20240049668A1 (VILMORIN AND CIE, published 2024).

B1: TM-2-2 variant L12_16 (769 E) (receptor)
chain: MAEILLTSVINKSVEIAGNLLIQEGKRLYWLKEDIDWLQREMRHIRSYVDNAKAKEAGGDSRVKNLLKDIQELAGDVEDLLDDFLPKIQQSNKFNYCLKRSSFADEFAMEIEKIKRRVVDIDRIRKTYNIIDTDNNNDDCVLLDRRRLFLHADETEIIGLDDDFNMLQAKLLNQDLHYGVVSIVGMPGLGKTTLAKKLYRLIRDQFECSGLVYVSQQPRASEILLDIAKQIGLTEQKMKENLEDNLRSLLKIKRYVILLDDIWDVEIWDDLKLVLPECDSKVGSRMIITSRNSNVGRYIGGESSLHALQPLESEKSFELFTKKIFNFDDNNSWANASPDLVNIGRNIVGRCGGIPLAIVVTAGMLRARERTEHAWNRVLESMGHKVQDGCAKVLALSYNDLPIASRPCFLYFGLYPEDHEIRAFDLINMWIAEKFIVVNSGNRREAEDLAEDVLNDLVSRNLIQLAKRTYNGRISSCRIHDLLHSLCVDLAKESNFFHTAHDAFGDPGNVARLRRITFYSDNVMIEFFRSNPKLEKLRVLFCFAKDPSIFSHMAYFDFKLLHTLVVVMSQSFQAYVTIPSKFGNMTCLRYLRLEGNICGKLPNSIVKLTRLETIDIDRRSLIQPPSGVWESKHLRHLCYRDYGQACNSCFSISSFYPNIYSLHPNNLQTLMWIPDKFFEPRLLHRLINLRKLGILGVSNSTVKMLSIFSPVLKALEVLKLSFSSDPSEQIKLSSYPHIAKLHLNVNRTMALNSQSFPPNLIKLTLAYFEVDRYILAVLKTFPKLRKLKMFICKYNEEKMDLSGEANGYSFPQLEVLHIHSPNGLSEVTCTDDVSMPKLKKLLLTGFHCRISLSERLKKLSK
B1: the “HR to MP Rugose” value in assay [1] was less than 1 HR scale 0-4.

B2: TM-2-2 variant pJL 511_2 (767 S, 848 R) (receptor)
chain: MAEILLTSVINKSVEIAGNLLIQEGKRLYWLKEDIDWLQREMRHIRSYVDNAKAKEAGGDSRVKNLLKDIQELAGDVEDLLDDFLPKIQQSNKFNYCLKRSSFADEFAMEIEKIKRRVVDIDRIRKTYNIIDTDNNNDDCVLLDRRRLFLHADETEIIGLDDDFNMLQAKLLNQDLHYGVVSIVGMPGLGKTTLAKKLYRLIRDQFECSGLVYVSQQPRASEILLDIAKQIGLTEQKMKENLEDNLRSLLKIKRYVILLDDIWDVEIWDDLKLVLPECDSKVGSRMIITSRNSNVGRYIGGESSLHALQPLESEKSFELFTKKIFNFDDNNSWANASPDLVNIGRNIVGRCGGIPLAIVVTAGMLRARERTEHAWNRVLESMGHKVQDGCAKVLALSYNDLPIASRPCFLYFGLYPEDHEIRAFDLINMWIAEKFIVVNSGNRREAEDLAEDVLNDLVSRNLIQLAKRTYNGRISSCRIHDLLHSLCVDLAKESNFFHTAHDAFGDPGNVARLRRITFYSDNVMIEFFRSNPKLEKLRVLFCFAKDPSIFSHMAYFDFKLLHTLVVVMSQSFQAYVTIPSKFGNMTCLRYLRLEGNICGKLPNSIVKLTRLETIDIDRRSLIQPPSGVWESKHLRHLCYRDYGQACNSCFSISSFYPNIYSLHPNNLQTLMWIPDKFFEPRLLHRLINLRKLGILGVSNSTVKMLSIFSPVLKALEVLKLSFSSDPSEQIKLSSYPHIAKLHLNVNRTMALNSQSFPPNLIKLTLASFSVDRYILAVLKTFPKLRKLKMFICKYNEEKMDLSGEANGYSFPQLEVLHIHSPNGLSEVTCTDDVSMPKLKKLLLTGFHRRISLSERLKKLSK
On to B2, for which the “HR to MP Rugose” value in assay [2] turned out to be 0 HR scale 0-4.

B3: TM-2-2 variant L12_3 (769 V) (receptor)
chain: MAEILLTSVINKSVEIAGNLLIQEGKRLYWLKEDIDWLQREMRHIRSYVDNAKAKEAGGDSRVKNLLKDIQELAGDVEDLLDDFLPKIQQSNKFNYCLKRSSFADEFAMEIEKIKRRVVDIDRIRKTYNIIDTDNNNDDCVLLDRRRLFLHADETEIIGLDDDFNMLQAKLLNQDLHYGVVSIVGMPGLGKTTLAKKLYRLIRDQFECSGLVYVSQQPRASEILLDIAKQIGLTEQKMKENLEDNLRSLLKIKRYVILLDDIWDVEIWDDLKLVLPECDSKVGSRMIITSRNSNVGRYIGGESSLHALQPLESEKSFELFTKKIFNFDDNNSWANASPDLVNIGRNIVGRCGGIPLAIVVTAGMLRARERTEHAWNRVLESMGHKVQDGCAKVLALSYNDLPIASRPCFLYFGLYPEDHEIRAFDLINMWIAEKFIVVNSGNRREAEDLAEDVLNDLVSRNLIQLAKRTYNGRISSCRIHDLLHSLCVDLAKESNFFHTAHDAFGDPGNVARLRRITFYSDNVMIEFFRSNPKLEKLRVLFCFAKDPSIFSHMAYFDFKLLHTLVVVMSQSFQAYVTIPSKFGNMTCLRYLRLEGNICGKLPNSIVKLTRLETIDIDRRSLIQPPSGVWESKHLRHLCYRDYGQACNSCFSISSFYPNIYSLHPNNLQTLMWIPDKFFEPRLLHRLINLRKLGILGVSNSTVKMLSIFSPVLKALEVLKLSFSSDPSEQIKLSSYPHIAKLHLNVNRTMALNSQSFPPNLIKLTLAYFVVDRYILAVLKTFPKLRKLKMFICKYNEEKMDLSGEANGYSFPQLEVLHIHSPNGLSEVTCTDDVSMPKLKKLLLTGFHCRISLSERLKKLSK
With B3, the “HR to MP Rugose” value in assay [1] is less than 1 HR scale 0-4.

B4: TM-2-2 variant L12_A (769 A) (receptor)
chain: MAEILLTSVINKSVEIAGNLLIQEGKRLYWLKEDIDWLQREMRHIRSYVDNAKAKEAGGDSRVKNLLKDIQELAGDVEDLLDDFLPKIQQSNKFNYCLKRSSFADEFAMEIEKIKRRVVDIDRIRKTYNIIDTDNNNDDCVLLDRRRLFLHADETEIIGLDDDFNMLQAKLLNQDLHYGVVSIVGMPGLGKTTLAKKLYRLIRDQFECSGLVYVSQQPRASEILLDIAKQIGLTEQKMKENLEDNLRSLLKIKRYVILLDDIWDVEIWDDLKLVLPECDSKVGSRMIITSRNSNVGRYIGGESSLHALQPLESEKSFELFTKKIFNFDDNNSWANASPDLVNIGRNIVGRCGGIPLAIVVTAGMLRARERTEHAWNRVLESMGHKVQDGCAKVLALSYNDLPIASRPCFLYFGLYPEDHEIRAFDLINMWIAEKFIVVNSGNRREAEDLAEDVLNDLVSRNLIQLAKRTYNGRISSCRIHDLLHSLCVDLAKESNFFHTAHDAFGDPGNVARLRRITFYSDNVMIEFFRSNPKLEKLRVLFCFAKDPSIFSHMAYFDFKLLHTLVVVMSQSFQAYVTIPSKFGNMTCLRYLRLEGNICGKLPNSIVKLTRLETIDIDRRSLIQPPSGVWESKHLRHLCYRDYGQACNSCFSISSFYPNIYSLHPNNLQTLMWIPDKFFEPRLLHRLINLRKLGILGVSNSTVKMLSIFSPVLKALEVLKLSFSSDPSEQIKLSSYPHIAKLHLNVNRTMALNSQSFPPNLIKLTLAYFAVDRYILAVLKTFPKLRKLKMFICKYNEEKMDLSGEANGYSFPQLEVLHIHSPNGLSEVTCTDDVSMPKLKKLLLTGFHCRISLSERLKKLSK
Take B4: in assay [1], the “HR to MP Rugose” value is 0 HR scale 0-4.

B5: TM-2-2 variant pJL 511_3 (767 Y, 769 A, 848 R) (receptor)
chain: MAEILLTSVINKSVEIAGNLLIQEGKRLYWLKEDIDWLQREMRHIRSYVDNAKAKEAGGDSRVKNLLKDIQELAGDVEDLLDDFLPKIQQSNKFNYCLKRSSFADEFAMEIEKIKRRVVDIDRIRKTYNIIDTDNNNDDCVLLDRRRLFLHADETEIIGLDDDFNMLQAKLLNQDLHYGVVSIVGMPGLGKTTLAKKLYRLIRDQFECSGLVYVSQQPRASEILLDIAKQIGLTEQKMKENLEDNLRSLLKIKRYVILLDDIWDVEIWDDLKLVLPECDSKVGSRMIITSRNSNVGRYIGGESSLHALQPLESEKSFELFTKKIFNFDDNNSWANASPDLVNIGRNIVGRCGGIPLAIVVTAGMLRARERTEHAWNRVLESMGHKVQDGCAKVLALSYNDLPIASRPCFLYFGLYPEDHEIRAFDLINMWIAEKFIVVNSGNRREAEDLAEDVLNDLVSRNLIQLAKRTYNGRISSCRIHDLLHSLCVDLAKESNFFHTAHDAFGDPGNVARLRRITFYSDNVMIEFFRSNPKLEKLRVLFCFAKDPSIFSHMAYFDFKLLHTLVVVMSQSFQAYVTIPSKFGNMTCLRYLRLEGNICGKLPNSIVKLTRLETIDIDRRSLIQPPSGVWESKHLRHLCYRDYGQACNSCFSISSFYPNIYSLHPNNLQTLMWIPDKFFEPRLLHRLINLRKLGILGVSNSTVKMLSIFSPVLKALEVLKLSFSSDPSEQIKLSSYPHIAKLHLNVNRTMALNSQSFPPNLIKLTLAYFAVDRYILAVLKTFPKLRKLKMFICKYNEEKMDLSGEANGYSFPQLEVLHIHSPNGLSEVTCTDDVSMPKLKKLLLTGFHRRISLSERLKKLSK
On to B5, for which, in assay [2], the “HR to MP Rugose” value was 4 HR scale 0-4.

B6: TM-2-2 variant pJL 511_1 (767 S, 769 A, 848 R) (receptor)
chain: MAEILLTSVINKSVEIAGNLLIQEGKRLYWLKEDIDWLQREMRHIRSYVDNAKAKEAGGDSRVKNLLKDIQELAGDVEDLLDDFLPKIQQSNKFNYCLKRSSFADEFAMEIEKIKRRVVDIDRIRKTYNIIDTDNNNDDCVLLDRRRLFLHADETEIIGLDDDFNMLQAKLLNQDLHYGVVSIVGMPGLGKTTLAKKLYRLIRDQFECSGLVYVSQQPRASEILLDIAKQIGLTEQKMKENLEDNLRSLLKIKRYVILLDDIWDVEIWDDLKLVLPECDSKVGSRMIITSRNSNVGRYIGGESSLHALQPLESEKSFELFTKKIFNFDDNNSWANASPDLVNIGRNIVGRCGGIPLAIVVTAGMLRARERTEHAWNRVLESMGHKVQDGCAKVLALSYNDLPIASRPCFLYFGLYPEDHEIRAFDLINMWIAEKFIVVNSGNRREAEDLAEDVLNDLVSRNLIQLAKRTYNGRISSCRIHDLLHSLCVDLAKESNFFHTAHDAFGDPGNVARLRRITFYSDNVMIEFFRSNPKLEKLRVLFCFAKDPSIFSHMAYFDFKLLHTLVVVMSQSFQAYVTIPSKFGNMTCLRYLRLEGNICGKLPNSIVKLTRLETIDIDRRSLIQPPSGVWESKHLRHLCYRDYGQACNSCFSISSFYPNIYSLHPNNLQTLMWIPDKFFEPRLLHRLINLRKLGILGVSNSTVKMLSIFSPVLKALEVLKLSFSSDPSEQIKLSSYPHIAKLHLNVNRTMALNSQSFPPNLIKLTLASFAVDRYILAVLKTFPKLRKLKMFICKYNEEKMDLSGEANGYSFPQLEVLHIHSPNGLSEVTCTDDVSMPKLKKLLLTGFHRRISLSERLKKLSK
On to B6, for which the “HR to MP Rugose” value in assay [2] is 0 HR scale 0-4.
